Patent US12006519B2, “Polymerase mutants and use with 3′-OH unblocked reversible terminators” (Agilent Technologies, Inc., priority 2021, dated 2024)

Key:
Assay type in all cases: biochemical
LTA-1 = assay: Template-independent incorporation of LTA-1 to a priming strand
Protocol: This example tested the addition of a 3′-OH unblocked reversible terminator (LTA-1, shown in FIG. 1E, or LTA-2, shown in FIG. 1F) to the 3′ end of a single-stranded priming strand. The extension reaction was performed with 2 uM or 80 nM of a priming strand and varying concentrations (100/50/10/5/1 μM) of the reversible terminator. The performance of the Pfu26 polymerase was compared to TdT polymerase.
(§1) Primer extensions were carried out in duplicate 25 ul reactions containing 7.5 U calf thymus TdT, 1×Promega TdT buffer (with CoCl2), varying concentrations of LTA-1 (100 uM, 50 uM, 10 uM, 5 uM, or 1 uM), and either 2 uM (FIG. 11A to 11C) or 80 nM (FIG. 11D to 11F) of a priming strand (Fam-labeled T7 F primer (6Fam […]), SEQ ID NO:8). Controls were performed without the addition of a polymerase. Primer extensions were also carried out in reactions containing the Pfu26 mutant polymerase, 60 nM of the priming strand, and various concentrations (10 μM or 5 μM or 1 μM) of LTA-1 or LTA-2.
Reactions were incubated at 37° C. for 30 min., and then heat-killed for 10 min. at 70° C. Reaction products were split in half, and one-half was treated with UV as described in Example 7. Reactions were then diluted 1:333 (2 uM primer) or 1:13 (80 nM primer) in water, and 0.5 ul portions were analyzed by capillary electrophoresis using the conditions provided in Example 7.

LTA-2 [1] = assay: Template-independent incorporation of LTA-2, LTU-2, LTG-2, LTC-2 to priming strands
Protocol: The template-independent DNA synthesis reactions employed 7.5 U TdT (Promega) or 180 nM (3×over primer) Pfu26 (D141A/E143A/A486L/Y546H/K477W/L409Y) or Pfu48 (D141A/E143A/A486R/Y546H/K477W/L409Y). Varying concentrations of dATP were added to 2 μM (TdT) or 60 nM (Pfu) T7 FOR primer (6′Fam […]) (SEQ ID NO:6) in duplicate reactions containing 1×TdT buffer with CoCl2(Promega) or 1×ThermoPol buffer (NEB). Reactions were incubated for 30 min. at 37° C. (TdT) or 60° C. (Pfu), and then inactivated with heat (TdT; 10 min. at 70° C.) or EDTA (1 ul 500 uM EDTA). Reaction products were exposed to UV using a Stratalinker (15-watt bulbs, […], 10 min). Reactions were diluted in water (TdT, 1:333; Pfu, 1:10) and 1 μl (TdT) or 0.5 μl (Pfu) aliquots were brought up to 10 μl with HiDI/LIZ 120 Size Standard. Products were heated at 95° C. for 5 min., cooled on ice for 2 min., and then analyzed on an ABI 3500 capillary electrophoresis system ([…] capillary, filter set #5, assay=GE5 LIZ120).
In this example, primer extension was carried out with LTA-2 (FIG. 1F) as a Rp+Sp racemic mixture of α-thiotriphosphate, using the conditions described in Example 7.
In further experiments, single-base extension reactions (10 ul) were performed with an equimolar mixture (3 uM each) of two single-stranded oligommcleotides:
Both were labeled with Fam but distinguishable by their lengths using capillary electrophoresis. Primer extension reactions were performed using the following three Pfu mutants at a concentration of 18 nM polymerase: • Pfu10: Pfu polymerase with D141A/E143A/A486L/Y546H/K477W mutations (SEQ ID NO:2) • Pfu26: Pfu polymerase with D141A/E143A/A486L/Y546H/K477W/L409Y mutations (SEQ ID NO:4) • Pfu48: Pfu polymerase with D141A/E143A/A486R/Y546H/K477W/L409Y mutations (SEQ ID NO:5) The extension reactions also employed individual αS-modified LTs in Rp+Sp racemic mixture (namely, LTA-2, LTU-2, LTG-2, and LTC-2) at final concentrations of 5 uM. LTU-2, LTG-2, and LTC-2 are all C7 or C5-hydroxymethyl-a-tert-butyl-2-nitrobenzyl modified reversible terminators like LTA-2, with uracil, guanine, and cytosine in place of adenine. […] Reactions were incubated, stopped, UV-treated, and analyzed as described in Example 7.
as §1

LTA-2 [2] = assay: Multi-cycle template-independent addition of LTA-2 (TiEOS); settings: 7-deaza-7-hydroxymethyl-α-tert-butyl-2-nitrobenzyl modified LTA, 3 or 6 cycles
Protocol: This example tested the multi-cycle addition of a 3′-OH unblocked reversible terminator (LTA-2, shown in FIG. 1F) to the 3′ end of a single-stranded priming strand using the Pfu26 mutant polymerase. Single-base extension assays were performed as described in Example 7 using Pfu26 with modified LTA-2 that has a-tert-butyl substituted 2-nitrobenyl terminating group attached to 7-deaza-C7hydroxymethyl group. The modified LTA-2 optionally contains the αS triphosphate modification and HPLC-purified to isolate the Sp isomer (FIGS. 13A and 13C). At each incorporation cycle (3 cycles-FIGS. 13A&13B; 6 cycles-FIG. 13C), 1 ul was removed and saved on ice for ABI 3500 analysis. At each cycle, the remaining reaction volume was purified using MyOne T1 […] beads as follows (for the 3-cycle experiment). 127.5 ul of beads were washed 2×in 1 ml wash solution and resuspended in the original volume with the wash solution. A biotinylated, antisense T7 (underlined) primer with spacer (5′-CCCTATAGTGAGTCGTATACGGAGCATA-biotin) was added at a final concentration of 180 nM. The beads and capture oligo were mixed at 300 rpm for 30 min. at room temperature, washed 2×in 500 ul wash solution, and resuspended in 150 ul of the same. […] After purification (cycles 2-6), 2 ul of fresh enzyme/LTA mix was added, and the primer extensions were performed and analyzed as described above.

B1: Pfu26: Pfu D141A/E143A/A486L/Y546H/K477W/L409Y, SEQ ID NO:4 (protein)
chain: MILDVDYITEEGKPVIRLFKKENGKFKIEHDRTFRPYIYALLRDDSKIEEVKKITGERHGKIVRIVDVEKVEKKFLGKPITVWKLYLEHPQDVPTIREKVREHPAVVDIFEYDIPFAKRYLIDKGLIPMEGEEELKILAFAIATLYHEGEEFGKGPIIMISYADENEAKVITWKNIDLPYVEVVSSEREMIKRFLRIIREKDPDIIVTYNGDSFDFPYLAKRAEKLGIKLTIGRDGSEPKMQRIGDMTAVEVKGRIHFDLYHVITRTINLPTYTLEAVYEAIFGKPKEKVYADEIAKAWESGENLERVAKYSMEDAKATYELGKEFLPMEIQLSRLVGQPLWDVSRSSTGNLVEWFLLRKAYERNEVAPNKPSEEEYQRRLRESYTGGFVKEPEKGLWENIVYLDFRAYYPSIIITHNVSPDTLNLEGCKNYDIAPQVGHKFCKDIPGFIPSLLGHLLEERQKIKTKMKETQDPIEWILLDYRQKLIKLLANSFYGYYGYAKARWYCKECAESVTAWGRKYIELVWKELEEKFGFKVLYIDTDGLHATIPGGESEEIKKKALEFVKYINSKLPGLLELEYEGFYKRGFFVTKKRYAVIDEEGKVITRGLEIVRRDWSEIAKETQARVLETILKHGDVEEAVRIVKEVIQKLANYEIPPEKLAIYEQITRPLHEYKAIGPHVAVAKKLAAKGVKIKPGMVIGYIVLRGDGPISNRAILAEEYDPKKHKYDAEYYIENQVLPAVLRILEGFGYRKEDLRYQKTRQVGLTSWLNIKKS
modifications: Mutant of Pyrococcus furiosus Polymerase
B1 was tested, and the “Template-independent incorporation of LTA-1 (in words)” value (LTA-1) was “incorporate LTA-1 less efficiently”, the “Template-independent incorporation of LTA-2, LTU-2, LTG-2 and LTC-2 (in words)” value (LTA-2 [1]; 18 nM polymerase, 5 uM terminators, CE2 and T7 oligonucleotides) was “superior to Calf thymus Terminal Transferase (TdT)” and the “Template-independent incorporation of LTA-2 (in words)” value (LTA-2 [1]; single-stranded priming strand) was “efficient incorporation and termination”. The “Multi-cycle addition of LTA-2 (in words)” value (LTA-2 [2]) was “did not generate an individual product with 100% efficiency after 2-3 rounds of TiEOS”.
